Patent US9307782B2, “Mannanase produced from Cellulosimicrobium sp. strain HY-13” (Korea Research Institute of Bioscience and Biotechnology, priority 2011, dated 2016)
Like-named read-outs stand apart in the source and are kept apart here. Marks after values point to notes of the source that are not given here.

Key:
[1] = Binding of mannanase to insoluble polymer; conditions: enzyme 5.0 IU/Ml, on ice two hours, pH 6.0
Protocol: The mannanase of the present invention contains two family 10 CBMs at C-terminal, which plays an important role in enzyme-substrate interaction. As the mannanase was expected to bind to various carbohydrate polymers, hydrophobic materials having microstructures including polysaccharide, poly(3HB) granules, and lignin were used as substrates to investigate enzyme-substrate binding activity of the mannanase.
Before analyzing the binding activity, insoluble substrates were washed with 50 mM sodium phosphate buffer (pH 6.0) 5 times, followed by measuring the binding capacity of the enzyme to the hydrophobic materials. Particularly, the enzyme diluted at the concentration of 5.0 IU/Ml was put on ice for two hours with the equal volume of a substrate polymer. The mixture was stirred every 5 minute. The mixture was centrifuged at 12,000×g to obtain supernatant. Then, the activity of β-1,4-mannanase thereof was measured.

[2] = toward locust bean gum; comparison enzymes of other strains; cited from earlier work
[3] = Specific activity of mannanase (substrate specificity); type: biochemical; conditions: substrate Birchwood xylan
From the text: The activity of β-1,4-mannanase was investigated by measuring the reduced amount of glucose isolated from locust bean gum using 3,5-dinitrosalicylic acid (DNS). At this time, D-mannose was used as a standard material. […] The activity of the recombinated mannanase (1 IU) to the mannan substrate was defined as the amount of the protein necessary for the secretion of 1 μmol reducing sugar under the standard analysis condition. […] The enzyme activity of the recombinated mannanase to the chromogenic substrate was measured under the same conditions as set for the analysis of β-1,4-mannanase activity. The activity of the recombinated mannanase (1 IU) to the PNP-sugar derivative was defined as the amount of the protein necessary for the production of 1 μmol PNP under the standard analysis condition.

[4] = Analysis of degradation product (HPLC, LC-MS/MS); type: biochemical
Protocol: (§1) Mannooligomer (M2˜M5, 1 mg/100 μl each) and locust bean gum (1.4 mg/100 μl) were reacted in 50 mM sodium phosphate buffer (pH 6.0) containing 1 μg of the recombinant mannanase at 30° C. for 12 hours, followed by investigation of the hydrolysate. HPLC (high performance liquid chromatography) was performed by using Finnigan Surveyor™ Modular HPLC systems (Thermo Electron Co.) equipped with Asahipak NH2P-50 2D column (5 μm, 2.0×150 mm, Shodex) ran by Xcalibur software (version 1.3 SP2, Thermo Electron Co.). Elution buffer A (0.05% pomalus acid/sterilized water) and elution buffer B (acetonitrile and methanol (7:3) containing 0.05% pomalus acid) were used as moving phases. LC-MS/MS (liquid chromatography/tandem mass spectrometry) was performed by using Finnigan LCQ Advantage MAX ion trap mass spectrometer (Thermo Electron Co.).

[5] = Analysis of degradation product (HPLC, LC-MS/MS); type: biochemical; conditions: substrate Ivory nut mannan; LC area %
Protocol: as §1, with “Mannooligomer (M2˜M5, 1 mg/100 μl each) and locust bean gum (1.4 mg/100 μl) were reacted in 50 mM sodium phosphate buffer (pH 6.0) containing 1 μg of the recombinant mannanase at 30° C. for 12 hours, followed by investigation of the hydrolysate.” left out

[6] = type: physicochemical
Protocol: To determine the optimum reaction temperature of the mannanase, mannanase activity was measured at different temperatures of 37, 40, 45, 50, 55, 60, 65, and 70° C. To measure thermo-stability, the mannanase was heat-treated at the said temperatures for 15, 30, and 60 minutes and then the remained activity was measured. To determine the optimum reaction pH, the mannanase was treated respectively with 50 mM of sodium citrate buffer (pH 4.0˜5.5), phosphate buffer (pH 5.5˜7.5), Tris-HCl buffer (pH 7.5˜9.0), and glycine-NaOH buffer (pH 9.0˜10.0) in pH range of 4.0˜10.0 at 55° C. for 15 minutes, followed by measurement of enzyme reaction.

[7] = Specific activity of mannanase (DNS reducing sugar assay); type: biochemical; conditions: for Specific activity: pH 6.0, 50° C., 15 minutes
Protocol: To compare the mannanase activity to different matrixes, locust bean gum, ivory nut mannan and guar gum were used as matrixes and the activity of the purified mannanase to those matrixes were investigated.
(§2) The activity of β-1,4-mannanase was investigated by measuring the reduced amount of glucose isolated from locust bean gum using 3,5-dinitrosalicylic acid (DNS). At this time, D-mannose was used as a standard material. 0.5 Ml of a standard mixture composed of 0.5% locust bean gum was mixed with 0.05 Ml of an enzyme aqueous solution, followed by inducing biodegradation reaction in 50 mM sodium phosphate buffer (pH 6.0) at 50° C. for 15 minutes. The activity of the recombinated mannanase (1 IU) to the mannan substrate was defined as the amount of the protein necessary for the secretion of 1 μmol reducing sugar under the standard analysis condition. Chromogenic PNP-sugar derivative was used to measure another degrading activity of the said recombinated enzyme. The enzyme activity of the recombinated mannanase to the chromogenic substrate was measured under the same conditions as set for the analysis of β-1,4-mannanase activity. The activity of the recombinated mannanase (1 IU) to the PNP-sugar derivative was defined as the amount of the protein necessary for the production of 1 μmol PNP under the standard analysis condition.

[8] = Specific activity of mannanase (substrate specificity); type: biochemical
Protocol: as §2

[9] = substrate Locust bean gum, 1 μg recombinant mannanase, pH 6.0, 30° C., 12 hours, LC area %

binding to insoluble polymer ([1]; Avicel): strongly conjugated | binding to insoluble polymer ([1]; chitin): strongly conjugated | binding to insoluble polymer ([1]; chitosan): strongly conjugated | binding to insoluble polymer ([1]; curdlan): not conjugated | binding to insoluble polymer ([1]; insoluble ivory nut mannan): strongly conjugated | binding to insoluble polymer ([1]; insoluble oat spelt xylan): not conjugated | binding to insoluble polymer ([1]; lignin): not conjugated | binding to insoluble polymer ([1]; poly(3HB) granules): not conjugated
B1: Mannanase: Wild type β-1,4-mannanase of Bacillus subtilis WY34 (protein)
chain: MRRLFAIVLGAVLALLAVPALAQGASVASDGFSVQDGRIYDANGNRFVPVGVNHAHAWYPSQTQSFADIRAAGANTVRVVLSGGRYGTSSAADVSAVVERCKQNQLVCILENHDTTGYGEDGSARSLASAAQYWTSIASVLRGQERYVMINIGNEPFGNSGFQSWTTDTIAAIRTLRAAGLDHTLVVDAPNWGQDWSFTMRDNAPTVAAADGNVVFSVHMYGVFDTGAEVRAYLDSFTSRGLPIMVGEFGDNHSDGNPDEATIMSYTRSQGIGMLGWSWSGNGGGVEYLDMVNGFSASSLTPWGQRFVHGADGLRARNAPAASVYGGDGGDGDGGAGTAPNGYPYCASASSDPDGDGWGWESSASCVVRGSSADTGSGGGSGSGSTAPNGYPYCASASSDPDGDGWGWESSASCVVRGSSADR
modifications: cellulosimicrobium
notes: Wild type β-1,4-mannanase of Bacillus subtilis WY34
Specific activity [2]: 8,302^d IU/mg | degradation of carbohydrate [3]: not degraded | Composition (%) of products formed by hydrolysis reaction: M1 [4, 9]: 1.1% | Composition (%) of products formed by hydrolysis reaction: M2 [4, 9]: 6.4% | Composition (%) of products formed by hydrolysis reaction: M3 [4, 9]: 1.5% | Composition (%) of products formed by hydrolysis reaction: M4 [4, 9]: 7.4% | Composition (%) of products formed by hydrolysis reaction: M5 [4, 9]: 44.2% | degradation of substrate ([4]; substrate M2 (printed N2)): not degraded | hydrolysis products: mannooligomer (at least M6) ([4]; substrate locust bean gum, sum of M6 and larger): 39.4% | Composition (%) of products formed by hydrolysis reaction: M4 [5]: 25.2% | Half life of the enzyme [6]: 15 min | Thermolability ([6]; exposed on the temperature of 55° C.): rapidly increased | specific activity to ivory nut mannan relative to guar gum ([7]; ratio ivory nut mannan / guar gum): 15.2 fold | specific activity to ivory nut mannan relative to locust bean gum ([7]; ratio ivory nut mannan / locust bean gum): 1.7 fold | Specific activity ([7]; toward guar gum): 967 IU/mg | Specific activity ([7]; toward insoluble ivory nut mannan): 14,711 IU/mg | Specific activity ([7]; toward locust bean gum): 8,498 IU/mg | degradation of carbohydrate ([8]; substrate carboxymethylcellulose): not degraded | degradation of carbohydrate ([8]; substrate pectin): not degraded | degradation of carbohydrate ([8]; substrate soluble starch): not degraded
